From publication PMC7618248, “VEL-dependent polymerization maintains the chromatin association of Polycomb proteins for the switch to epigenetic silencing” (Molecular cell, 2025)

Target: the molecule itself
Experiment: SEC-MALS; purified Lip-VIN3VEL at increasing concentrations from 50 uM to 1250 uM; Superose6 Increase 10/300 column

Row | Protein | binding result
1 | Lip-VIN3VEL (residues 500-603) wild type (domain or fragment, Arabidopsis thaliana, UniProt Q9FIE3 500-603, looked up, VIN3 VEL domain construct, Arabidopsis thaliana, residues 500-603; The end of the tag is read from the name Lip-VIN3VEL; also called WT VIN3VEL; 6xHisLip-tagged VIN3VEL; source: Escherichia coli, purified; not shown: 6xHis-Lip (lipoyl solubility tag), N-terminal, kept) GKQGGNKRFKSRTVSLNEKPEINNAANGVGDKDLGHIVKTIRCLEEEGHIDKSFRERFLTWYSLRATHREVRVVKIFVETFMEDLSSLGQQLVDTFSESILSKR | binds
2 | Lip-VIN3VEL (residues 500-603) I575T (domain or fragment, Arabidopsis thaliana, UniProt Q9FIE3 500-603, looked up, VIN3 VEL domain construct, Arabidopsis thaliana, residues 500-603, with I575 changed to the threonine found at the corresponding position of VRN5; The end of the tag is read from the name Lip-VIN3VEL; also called I575T mutant Lip-VIN3VEL; VIN3VEL I575T; source: Escherichia coli, purified; not shown: 6xHis-Lip (lipoyl solubility tag), N-terminal, kept) GKQGGNKRFKSRTVSLNEKPEINNAANGVGDKDLGHIVKTIRCLEEEGHIDKSFRERFLTWYSLRATHREVRVVKTFVETFMEDLSSLGQQLVDTFSESILSKR | binds
